This data set can be described thus: label from the status in PepcDB records.

In the case of “MISGDTLSAKKPKSVPQEEDQDPPSQSIALLDNHTDSSGSDSSTRSISSCFIFTSLLLVTCIALSAASAFAFLFFSSQKPVLSLNQISKSPAFDRSVARPLKKLDKPVVLLISSDGFRFGYQFKTKLPSIHRLIANGTEAETGLIPVFPTLTFPNHYSIVTGLYPAYHGIINNHFVDPETGNVFTMASHEPEWWLGEPLWETVVNQGLKAATYFWPGSEVHKGSWNCPQGLCQNYNGSVPFDDRVDTILSYFDLPSNEIPSFMTLYFEDPDHQGHQVGPDDPQITEAVVNIDRLIGRLIDGLEKRGIFEDVTMIMVGDHGMVGTCDKKLVVLDDLAPWIKIPSSWVQYYTPLLAIQPPSGHDAADIVAKINEGLSSGKVENGKYLKVYLKEDLPSRLHYVDSDRIPPIIGLVDEGFKVEQKKSKAKECGGAHGYDNAFFSMRTIFIGHGPMFSKGRKVPSFENVQIYNVISSILGLKAAPNNGSDEFSSSILLPRV”, the protein production entry is “failed”.

With “MISGFSMHSSAHYRQLLARLPQIAVAADQFEVLNSAKDFKSRILSLIASARQRIYLVALYLQDDEAGREILSALYAAKQRNPALDVKVFVDFHRAQRGLIGKGKQGGNHLMYQEMAARHEHQIAIYGVPVKGRELLGVLHLKGFIFDDTLLYSGASLNDIYLHQQDRYRFDRYHQITSPELTRSMVNYVDDLFLRSEAVQRLDRTDIPSAKQLKGPIRRFKHNLRLGQYRFDTMPVNSQEVAITPMSGLGKRGNQLNKMIRTLVRATEREIFICTPYFNPPKELNKDIEALLKRGCKVTIVVGDKTANDFFIPPEEKFSTIGGLPYLYETNLRKFAERNQHHIDAGRLNLMLWCCERNSYHLKGIFVDDEWALLTGNNLNPRAWALDLENGLLVYDRRHLLRPQFNAERENILANTKRISHFDQIEQIQDYPDQVRKLLARIHRVKAHILLKRII”, the protein production result is on record as “failed”.

For “MISGISGILCVVLVSKGKISNYFFGLIFAYTYFYVAWGSNFLGEMNTVLYVYLPSQFIGYFMWKANMQNSDGGESVIAKALTVKGWMTLIVVTTVGTLLFVQALQAAGGSSTGLDGLTTIITVAAQILMILPLS”, the protein production result is reported as “failed”.

For “MISGSATASHGRVLLPSQRERRPVSTGSNILRFRETVPRQFSLMMVTKATAKYMGTKMREEKLSEMIEEKVKEATEVCEAEEMSEECRVAWDEVEEVSQARADLRIKLKLLNQDPLESFCQENPETDECRIYED”, the protein production entry was “failed”.

On to “MISNNPNHTEYDTWAWLYNQTMGPEYSQNQLKPLEKILLPQIKPNAKILDLCCGTGQLVQTLINRGYQITGVDNSSEMLNYARKNAPNGQFLLADARYFELPLSFDAAFSTSAALNHIMTIPELQQVFQRVYSALKENGWFLFDINHHQQMQRWWRGKIAEGEIENKYAWMVTPNYNPEERQGYFQVTMFQKKTKPSSARIIKIIWRLLSPILNHNLLYKLRIKLLSVFQAKEKNWQRMDEKYFVRGHIPEEIKIALQQTGFTDIQILTLEGNPTIDDRHSAYFLCRKPVNI”, for which the protein production entry was “failed”.

For the sequence “MISSLSASSSLVSSFVAVKATPVTGPLIPRRDLLSIRIRASSNQNSSGYCFPEKFKSFAKSAILIGAAVSMTGKFSTLPVKAESPVTTIEKTYEEVKEEKLSEITPLSELLDSTPEAVETLRSLLQQKLEKGEDEEALKLLERLVAAQPEETEWKFLMARLLGEMGRPENARQMFEEILQRNPLSFEALFENALLMDRSGEGNAVLQRLEDALAVAEAEYLVKEARDVRLIIAQIHFLQKNVDEALKSYEQLTKEDPKDFRPYFCRGMIYSLLDKNVEAKEQFAKYRELSPKKFEVEGYLRTPLSKMKLFGGSEEN”, the protein production entry is “failed”.

With “MISVAQYLEAATRPNTERAYAAATRHFEIEWGGHLPTTAEQVARYLAAYAGQLALNTLRHRLAALAQWHQAHGFADPTRAPVVRKVLKGIQTVHPSQEKRATPLQLTQLGQVVDWLDGAATAAGTRDDAAGRLRHMRDRAFVLLGFWRGFRGDELVRLQVQDLELVAGEGMTCFLPHSKSDRQHAGTTYKVPALSRWCPVAATMAWVAAAALHEGPLFRAVNQWGGIAAAPLHPNSLVPLLRRIFREAGLSSPNDYSGHSLRRGFAGWANANGWDVKALMEYVGWRDVHSAMRYLDGADPFARQRIEASVSPATPPLLALAAPAPDPVPTTAVEATVTLTRFNSRVRGLAKAHRLIEQICLQPHQAQRLNADGTRYRLAIAAVDEAAFEETIAMLLDEMHRIADNHQCFLAVALRDEAGGRHWD”, the protein production entry is reported as “failed”.

With “MITIDPEYFEILKEFGAERVVRCYQCGTCTGICPVSTTDASFPRKPVLLSRFGVGEVIENFEEAWLCLSCNLCTEFCPRDVKPSETMLAIKRVLVENGKTPPYIRDFFQNIMKQKNPWGIGKFKREDWVKKSDVEVPKVKDNPEYEWLWFVGCAHAFENRNINVTLKMARILSDLGINFATLGREEGCCGNDVRRAGEEGLFEVLMEENIKTFGKYGVQRLFTHSPHCFNAFKNWYEGYEVKLFLEILRDAIKSGKLELKNKLDLTVTYHDSCYLGRYNGIYDLPREVLKLIPGVELVEMKSNRRMSLCCGGGAGNIVGDYPGEIQPARVRAQEAAETGANVLAVACPFCLLMLEDGVKTEKLDKQLVVKDIVELVYEAAYGEE”, the protein production result is “failed”.

As to “MITLAQAEVGKVYTVESVQADIQTKKHLNNLGVVAGQAVVLVNYQNQNGIVLLHNSRIALTDTILQAIHVEERSANEKVWVSLDTLKVGERATIVGIHGQGAVKRRLMDMGLTKGTVIFIRKVAPLADPIEINVRGYELTLRKSEAELILVEKEESELEHHHHHH”, the protein production entry was “failed”.

Turning to “MITNKKCKGCGAFLNDQINTIGYTPKINETKTNLCQRCFKLIHYNKLEKVSTNLNQSIKETINTLNFSNLQIFAVLDILDLEHTIIDELKEYQNKIIFLVNKIDLLPQRYNSELVNENVVKTLINHGFIDPKIIYVSTHSNTSLKKVMDYIKNATNKKQKSIFFGKSNVGKSSLINALLALNKIKTKLTISSYTNTTINLNKINIQEHQILDAPGVCFDENILNYVRDEDNKSIMISYGAKAINYQINPQQALMISGLVGIQYLKGQKTTFTLYVSSQLDIHRCKLENFIMNFNKRYLLAKFNYLNQDLEFVDHLITLNKDQKTNICIAGLGLLVINAHAEQICIRLPKSVGLKVAKYAII”, the protein production entry is on record as “failed”.

As for “MITQNIESLNNIAKIQHAANTDYLTDLANRRAFFRSAESRIKEYINKKVPYCLAMIDVDFFKKVNDTYGHDSGDQVLKVIALYMRKHFGAGLTARLGGEEFAVLLHGLDADYLHNKLDDFRREIAVSSIPAGDTSISITLSLGVVFDSEDELSKQMNEADNALYAAKENGRNQIVVFGAELDDLEHHHHHH”, the protein production entry was “not failed”.

As for “MITTIISSVVAFATTNIDDIFILLVLFSQVRTEVIRKEGRAVREKATRKKLYIVIGQYLGFSMIIFLSIIGSLSSFFIPVSWIGLLGFVPIYMGVKGLLSLRSYKSNEVIDNVTVSLFKVASITLANGADNISIYIPMFASQTLETNIVTLVIFFSMIAIWCFISYKLIKAPILAKVLEENCHIIVPIVLIGLGMFILFRSGTIGLFS”, the protein production result is recorded as “failed”.

On to “MITTKLKLSVTNDYLLRINENRYVLIDTGYKEDWKLFLKRLKENGIKINEISYVILTHHHDDHVGFLNKLVSENKDIRVVMSDKTNELIKVGENDQTHGGGLINKRIEFLIRYKNMYVSKVLGVKKENNLKFPPYESRNNDIIFTGEVTLRELGIDLPGKIIETPGHTIDSISILFEDGDCFVGDAAANMLKLCGTKNCVIFIMDKKQYYESWDKMIKVGVKKVYPAHGGEFSVGRLKKNIWRNL”, for which the protein production entry is listed as “failed”.

For “MITTTIFPGRYVQGAGAINILEEELSRFGERAFVVIDDFVDKNVLGENFFSSFTKVRVNKQIFGGECSDEEIERLSGLVEEETDVVVGIGGGKTLDTAKAVAYKLKKPVVIVPTIASTDAPCSALSVIYTPNGEFKRYLFLPRNPDVVLVDTEIVAKAPARFLVAGMGDALATWFEAESCKQKYAPNMTGRLGSMTAYALARLCYETLLEYGVLAKRSVEEKSVTPALEKIVEANTLLSGLGFESGGLAAAHAIHNGLTVLENTHKYLHGEKVAIGVLASLFLTDKPRKMIEEVYSFCEEVGLPTTLAEIGLDGVSDEDLMKVAEKACDKNETIHNEPQPVTSKDVFFALKAADRYGRMRKNLT”, the protein production entry was “not failed”.

As for “MITVNFLILLLGLVFLVKGSDYFVKSASTIAKKLGVSEFVIGLTLVAIGTSIPELASSIAASIQQASGIVIGNVVGSNIANVGLIVGVAALLSPMKTEIDMLKRDGYIMLFSAVLFFVFAFNRELSMLEAGLFVLLYIAYVFFLFEEAEKYEGKLHFKEFITYFFKFKYINSAMQKLNGNRNRNSDSDRNSDSGNGNERLEGGFAKDIFTLVLSCAAIVIGAKYFVEESIFFAELLGIPDTVIGTTLVAVGTSLPELVVTVSAARQGYGSIALGNVIGSNITNIFLILGLSGLFYPLSVAEMSLFFTTPVMIAISLILLIFISTGWEIKRWEGVVLMMFYVAFLVVLFYI”, the protein production entry was “failed”.

On to “MITVVGTGTGAPLSADAARALAGAGLVVGGRRHLAAAALPDGAERIVLGPLAPALDAIEAALEKQRRVVVLASGDPGFFGIVRALAERFGAERLDVRPGVSSVATAFARLGLPWDDAVVVSAHGRDLRTALNVCRSRPKVAVLTGPGAGPAELGAALAHGFGARVLVVASALGDPEHERVERVTPAEAAARDWGTAVSVVLCLDASRALAPVRTVAGPPAGPARWALEEGDFAHRDSMITKFEVRALALARLGPRLGDLVWDVGAGSGSVAVECARLGAAVTAVEKTLDGVERIHANARAHGVDVHVVHGAAPDALTALPDPDAVFIGGGGRELPALVTACARRARRTVVVAMAALDRVPAVREALTGAGFGCDGVLLQSSRLAPLPGDVTRLAATNPVFLLWGARPPARTEGALQ”, for which the protein production entry is reported as “failed”.

In the case of “MITVVKRNGRIEPLDITKIQKYTKDATDNLEGVSQSELEVDARLQFRDKITTEEIQQTLIKTAVDKIDIDTPNWSFVASRLFLYDLYHKVSGFTGYRHLKEYFENAEEKGRILKGFKEKFDLEFLNSQIKPERDFQFNYLGIKTLYDRYLLKDANNNPIELPQHMFMSIAMFLAQNEQEPNKIALEFYEVLSKFEAMCATPTLANARTTKHQLSSCYIGSTPDNIEGIFDSYKEMALLSKYGGGIGWDFSLVRSIGSYIDGHKNASAGTIPFLKIANDVAIAVDQLGTRKGAIAVYLEIWHIDVMEFIDLRKNSGDERRRAHDLFPALWVCDLFLKRVLEDAMWTLFDPYECKDLTELYGQDFEKRYLEYEKDPKIIKEYINAKDLWKKILMNYFEAGLPFLAFKDNANRCNPNAHAGIIRSSNLCTEIFQNTAPNHYYMQIEYTDGTIEFFEEKELVTTDSNITKCANKLTSTDILKGKPIYIATKVAKDGQTAVCNLASINLSKINTEEDIKRVVPIMVRLLDNVIDLNFYPNRKVKATNLQNRAIGLGVMGEAQMLAEHQIAWGSKEHLEKIDALMEQISYHAIDTSANLAKEKGVYKDFENSEWSKGIFPIDKANNEALKLTEKGLFNHACDWQGLREKVKANGMRNGYLMAIAPTSSISILVGTTQTIEPIYKKKWFEENLSGLIPVVVPNLNVETWNFYTSAYDIDAKDLIKAAAVRQKWIDQGQSLNVFLRIENASGKTLHDIYTLAWKLGLKSTYYLRSESPSIDEKSVLDRSVECFNCQ”, the protein production entry was “failed”.

Take “MIVASSAAYRLHQGDALRLLCGIDSASVDAVITDPPYCSGAMRMADRFKPTKRKYINNGTKHVAPDFDCDFRDHRGFLAWSSQWLSECRRVTRPGGVLLVFTDWRMLPTLTDAVQSAGWAWQGIVVWDKTPACRPQLGRFRSQAEFIVWASCGLMNPKAHPVTPVGVFATGTAPREKRHQVGKPLALMEHLVKIVPPASTVLDPFAGSGTTGVAALRAGHRFIGMELSPWYCDVTKQRLADST”: the protein production result was “failed”.

Values taken from a protein production outcome set (Wang et al. 2014).
